# Measurements: US20220112296A1 (Chugai, published 2022)
# Target: human CD137 (4-1BB) on cells (human, UniProt Q07011 24-255)
# Experiment: cell-based or functional assay
# Sequence of human CD137 (4-1BB) on cells (Q07011 24-255): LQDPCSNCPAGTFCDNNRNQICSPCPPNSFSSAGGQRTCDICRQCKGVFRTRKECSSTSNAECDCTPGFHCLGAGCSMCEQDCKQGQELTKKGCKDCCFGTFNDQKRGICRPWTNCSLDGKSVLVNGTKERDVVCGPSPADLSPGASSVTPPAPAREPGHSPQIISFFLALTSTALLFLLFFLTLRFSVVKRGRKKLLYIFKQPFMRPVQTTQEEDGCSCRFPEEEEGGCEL
Binder,"Agonistic activity compared to B, 6 ug/mL [%]","Agonistic activity compared to B, 30 ug/mL [%]","Agonistic activity compared to Ctrl, 6 ug/mL [%]","Agonistic activity compared to Ctrl, 30 ug/mL [%]","hIL-6 (pg/mL), 6 ug/mL antibody [pg/mL]","hIL-6 (pg/mL), 30 ug/mL antibody [pg/mL]"
"GPC3 ERY22-B (bispecific antibody, human IgG1, kappa, L234A L235A, N297A) heavy 1: DIVMTQSPLSLPVTPGEPASISCRSSQSLVHSNRNTYLHWYQQKPGQAPRLLIYKVSNRFSGVPDRFSGSGSGTDFTLKISRVEAEDVGVYYCSQNTHVPPTFGQGTKLEIKSSASTKGPSVFPLAPSSKSTSGGTAALGCLVKDYFPEPVTVSWNSGALTSGVHTFPAVLQSSGLYSLSSVVTVPSSSLGTQTYICNVNHKPSNTKVDKKVEPKSCDKTHTCPPCPAPEAAGGPSVFLFPPKPKDTLMISRTPEVTCVVVDVSHEDPEVKFNWYVDGVEVHNAKTKPREEQYASTYRVVSVLTVLHQDWLNGKEYKCKVSNKALPAPIEKTISKAKGQPREPQVCTLPPSRDELTKNQVSLWCLVKGFYPSDIAVEWESNGQPENNYKTTPPVLDSDGSFFLYSKLTVDKSRWQQGNVFSCSVMHEALHNHYTQKSLSLSPHHHHHHHH light 1: QVQLVQSGAEVKKPGASVKVSCKASGYTFTDYEMHWIRQPPGQGLEWIGAIDPKTGDTAYSQKFKGRVTLTADKSTSTAYMELSSLTSEDTAVYYCTRFYSYTYWGQGTLVTVSSASVAAPSVFIFPPSDEQLKSGTASVVCLLNNFYPREAKVQWKVDNALQSGNSQESVTEQDSKDSTYSLSSTLTLSKADYEKHKVYACEVTHQGLSSPVTKSFNRGEC heavy 2: QVQLQQWGAGLLKPSETLSLTCAVYGGSFSGYYWSWIRQSPEKGLEWIGEINHGGYVTYNPSLESRVTISVDTSKNQFSLKLSSVTAADTAVYYCARDYGPGNYDWYFDLWGRGTLVTVSSASTKGPSVFPLAPSSKSTSGGTAALGCLVKDYFPEPVTVSWNSGALTSGVHTFPAVLQSSGLYSLSSVVTVPSSSLGTQTYICNVNHKPSNTKVDKKVEPKSCDKTHTCPPCPAPEAAGGPSVFLFPPKPKDTLMISRTPEVTCVVVDVSHEDPEVKFNWYVDGVEVHNAKTKPREEQYASTYRVVSVLTVLHQDWLNGKEYKCKVSNKALPAPIEKTISKAKGQPREPQVYTLPPSRCELTKNQVSLSCAVKGFYPSDIAVEWESNGQPENNYKTTPPVLDSDGSFFLVSKLTVDKSRWQQGNVFSCSVMHEALHNHYTQKSLSLSP light 2: not shown",100,100,347,380,4520,4340
"GPC3 ERY22-dBBDu_167/L091 (bispecific antibody, human IgG1, kappa, L234A L235A, N297A) heavy 1: DIVMTQSPLSLPVTPGEPASISCRSSQSLVHSNRNTYLHWYQQKPGQAPRLLIYKVSNRFSGVPDRFSGSGSGTDFTLKISRVEAEDVGVYYCSQNTHVPPTFGQGTKLEIKSSASTKGPSVFPLAPSSKSTSGGTAALGCLVKDYFPEPVTVSWNSGALTSGVHTFPAVLQSSGLYSLSSVVTVPSSSLGTQTYICNVNHKPSNTKVDKKVEPKSCDKTHTCPPCPAPEAAGGPSVFLFPPKPKDTLMISRTPEVTCVVVDVSHEDPEVKFNWYVDGVEVHNAKTKPREEQYASTYRVVSVLTVLHQDWLNGKEYKCKVSNKALPAPIEKTISKAKGQPREPQVCTLPPSRDELTKNQVSLWCLVKGFYPSDIAVEWESNGQPENNYKTTPPVLDSDGSFFLYSKLTVDKSRWQQGNVFSCSVMHEALHNHYTQKSLSLSPHHHHHHHH light 1: QVQLVQSGAEVKKPGASVKVSCKASGYTFTDYEMHWIRQPPGQGLEWIGAIDPKTGDTAYSQKFKGRVTLTADKSTSTAYMELSSLTSEDTAVYYCTRFYSYTYWGQGTLVTVSSASVAAPSVFIFPPSDEQLKSGTASVVCLLNNFYPREAKVQWKVDNALQSGNSQESVTEQDSKDSTYSLSSTLTLSKADYEKHKVYACEVTHQGLSSPVTKSFNRGEC heavy 2: QVQLVESGGGLVQPGRSLRLSCAASGFTFSNAWMHWVRQAPGKGLEWVAQIKDKGNLYAAYYAPSVKGRFTISRDDSKNSIYLQMNSLKTEDTAVYYCHYVHYASAGGGLPGFGVDAWGQGTTVTVSSASTKGPSVFPLAPSSKSTSGGTAALGCLVKDYFPEPVTVSWNSGALTSGVHTFPAVLQSSGLYSLSSVVTVPSSSLGTQTYICNVNHKPSNTKVDKKVEPKSCDKTHTCPPCPAPEAAGGPSVFLFPPKPKDTLMISRTPEVTCVVVDVSHEDPEVKFNWYVDGVEVHNAKTKPREEQYASTYRVVSVLTVLHQDWLNGKEYKCKVSNKALPAPIEKTISKAKGQPREPQVYTLPPSRCELTKNQVSLSCAVKGFYPSDIAVEWESNGQPENNYKTTPPVLDSDGSFFLVSKLTVDKSRWQQGNVFSCSVMHEALHNHYTQKSLSLSPDYKDDDDK light 2: DIVMTQSPLSLPVTPGEPASISCSASESLLHNNRHTYLHWYQQKPGQAPRLLIYRVSNRFNGVPDRFSGSGSGTDFTLKISRVEAEDVGVYYCGQGTQVPFTFGQGTKLEIKRTVAAPSVFIFPPSDEQLKSGTASVVCLLNNFYPREAKVQWKVDNALQSGNSQESVTEQDSKDSTYSLSSTLTLSKADYEKHKVYACEVTHQGLSSPVTKSFNRGEC",-2.21,1.1,-7.68,4.19,935,944
"GPC3 ERY22-dBBDu_183/L063 (bispecific antibody, human IgG1, kappa, L234A L235A, N297A) heavy 1: DIVMTQSPLSLPVTPGEPASISCRSSQSLVHSNRNTYLHWYQQKPGQAPRLLIYKVSNRFSGVPDRFSGSGSGTDFTLKISRVEAEDVGVYYCSQNTHVPPTFGQGTKLEIKSSASTKGPSVFPLAPSSKSTSGGTAALGCLVKDYFPEPVTVSWNSGALTSGVHTFPAVLQSSGLYSLSSVVTVPSSSLGTQTYICNVNHKPSNTKVDKKVEPKSCDKTHTCPPCPAPEAAGGPSVFLFPPKPKDTLMISRTPEVTCVVVDVSHEDPEVKFNWYVDGVEVHNAKTKPREEQYASTYRVVSVLTVLHQDWLNGKEYKCKVSNKALPAPIEKTISKAKGQPREPQVCTLPPSRDELTKNQVSLWCLVKGFYPSDIAVEWESNGQPENNYKTTPPVLDSDGSFFLYSKLTVDKSRWQQGNVFSCSVMHEALHNHYTQKSLSLSPHHHHHHHH light 1: QVQLVQSGAEVKKPGASVKVSCKASGYTFTDYEMHWIRQPPGQGLEWIGAIDPKTGDTAYSQKFKGRVTLTADKSTSTAYMELSSLTSEDTAVYYCTRFYSYTYWGQGTLVTVSSASVAAPSVFIFPPSDEQLKSGTASVVCLLNNFYPREAKVQWKVDNALQSGNSQESVTEQDSKDSTYSLSSTLTLSKADYEKHKVYACEVTHQGLSSPVTKSFNRGEC heavy 2: QVQLVESGGGLVQPGRSLRLSCAASGFTFSNAWMHWVRQAPGKGLEWVAQIKDKGNAYAAYYAPSVKGRFTISRDDSKNSIYLQMNSLKTEDTAVYYCHYVHYASASTVLPAFGVDAWGQGTTVTVSSASTKGPSVFPLAPSSKSTSGGTAALGCLVKDYFPEPVTVSWNSGALTSGVHTFPAVLQSSGLYSLSSVVTVPSSSLGTQTYICNVNHKPSNTKVDKKVEPKSCDKTHTCPPCPAPEAAGGPSVFLFPPKPKDTLMISRTPEVTCVVVDVSHEDPEVKFNWYVDGVEVHNAKTKPREEQYASTYRVVSVLTVLHQDWLNGKEYKCKVSNKALPAPIEKTISKAKGQPREPQVYTLPPSRCELTKNQVSLSCAVKGFYPSDIAVEWESNGQPENNYKTTPPVLDSDGSFFLVSKLTVDKSRWQQGNVFSCSVMHEALHNHYTQKSLSLSPDYKDDDDK light 2: DIVMTQSPLSLPVTPGEPASISCRSSQELVHTNRHTYLHWYQQKPGQAPRLLIYKVSNRFPGVPDRFSGSGSGTDFTLKISRVEAEDVGVYYCAQGTQVPFTFGQGTKLEIKRTVAAPSVFIFPPSDEQLKSGTASVVCLLNNFYPREAKVQWKVDNALQSGNSQESVTEQDSKDSTYSLSSTLTLSKADYEKHKVYACEVTHQGLSSPVTKSFNRGEC",-1.27,6.51,-4.41,24.7,968,1130
"GPC3 ERY22-dBBDu_183/L072 (bispecific antibody, human IgG1, kappa, L234A L235A, N297A) heavy 1: DIVMTQSPLSLPVTPGEPASISCRSSQSLVHSNRNTYLHWYQQKPGQAPRLLIYKVSNRFSGVPDRFSGSGSGTDFTLKISRVEAEDVGVYYCSQNTHVPPTFGQGTKLEIKSSASTKGPSVFPLAPSSKSTSGGTAALGCLVKDYFPEPVTVSWNSGALTSGVHTFPAVLQSSGLYSLSSVVTVPSSSLGTQTYICNVNHKPSNTKVDKKVEPKSCDKTHTCPPCPAPEAAGGPSVFLFPPKPKDTLMISRTPEVTCVVVDVSHEDPEVKFNWYVDGVEVHNAKTKPREEQYASTYRVVSVLTVLHQDWLNGKEYKCKVSNKALPAPIEKTISKAKGQPREPQVCTLPPSRDELTKNQVSLWCLVKGFYPSDIAVEWESNGQPENNYKTTPPVLDSDGSFFLYSKLTVDKSRWQQGNVFSCSVMHEALHNHYTQKSLSLSPHHHHHHHH light 1: QVQLVQSGAEVKKPGASVKVSCKASGYTFTDYEMHWIRQPPGQGLEWIGAIDPKTGDTAYSQKFKGRVTLTADKSTSTAYMELSSLTSEDTAVYYCTRFYSYTYWGQGTLVTVSSASVAAPSVFIFPPSDEQLKSGTASVVCLLNNFYPREAKVQWKVDNALQSGNSQESVTEQDSKDSTYSLSSTLTLSKADYEKHKVYACEVTHQGLSSPVTKSFNRGEC heavy 2: QVQLVESGGGLVQPGRSLRLSCAASGFTFSNAWMHWVRQAPGKGLEWVAQIKDKGNAYAAYYAPSVKGRFTISRDDSKNSIYLQMNSLKTEDTAVYYCHYVHYASASTVLPAFGVDAWGQGTTVTVSSASTKGPSVFPLAPSSKSTSGGTAALGCLVKDYFPEPVTVSWNSGALTSGVHTFPAVLQSSGLYSLSSVVTVPSSSLGTQTYICNVNHKPSNTKVDKKVEPKSCDKTHTCPPCPAPEAAGGPSVFLFPPKPKDTLMISRTPEVTCVVVDVSHEDPEVKFNWYVDGVEVHNAKTKPREEQYASTYRVVSVLTVLHQDWLNGKEYKCKVSNKALPAPIEKTISKAKGQPREPQVYTLPPSRCELTKNQVSLSCAVKGFYPSDIAVEWESNGQPENNYKTTPPVLDSDGSFFLVSKLTVDKSRWQQGNVFSCSVMHEALHNHYTQKSLSLSPDYKDDDDK light 2: DIVMTQSPLSLPVTPGEPASISCQASQELVHMNRNTYLHWYQQKPGQAPRLLIYKVSNRFPGVPDRFSGSGSGTDFTLKISRVEAEDVGVYYCAQGTSVPFTFGQGTKLEIKRTVAAPSVFIFPPSDEQLKSGTASVVCLLNNFYPREAKVQWKVDNALQSGNSQESVTEQDSKDSTYSLSSTLTLSKADYEKHKVYACEVTHQGLSSPVTKSFNRGEC",3.21,15.8,11.1,59.8,1130,1450
